Test results reported in patent publication US20200095598A1 (COMMONWEALTH SCIENTIFIC AND INDUSTRIAL RESEARCH ORGANISATION, published 2020).
Where two headings read alike, the source gives them in different places.

Experiments:
[1] = system: pFAγ::NifD::HA fusion polypeptide
[2] = biological target: pFAγ::NifD::FLAG fusion polypeptide (Klebsiella pneumoniae (NifD part); Arabidopsis thaliana (pFAγ MTP)); assay: cell-based or functional assay
[3] = biological target: the molecule itself; assay: SDS-PAGE and Western blot of N. benthamiana leaf extracts; self-association (band at about double the molecular weight)
[4] = biological target: NifD polypeptide encoded by pMIT2.1 (wild-type nitrogenase gene cluster) in E. coli, P00466
[5] = biological target: T1, FAγ^51::NifD::HA fusion polypeptide (constructs SN6, SN7, SN8)
T1 chain: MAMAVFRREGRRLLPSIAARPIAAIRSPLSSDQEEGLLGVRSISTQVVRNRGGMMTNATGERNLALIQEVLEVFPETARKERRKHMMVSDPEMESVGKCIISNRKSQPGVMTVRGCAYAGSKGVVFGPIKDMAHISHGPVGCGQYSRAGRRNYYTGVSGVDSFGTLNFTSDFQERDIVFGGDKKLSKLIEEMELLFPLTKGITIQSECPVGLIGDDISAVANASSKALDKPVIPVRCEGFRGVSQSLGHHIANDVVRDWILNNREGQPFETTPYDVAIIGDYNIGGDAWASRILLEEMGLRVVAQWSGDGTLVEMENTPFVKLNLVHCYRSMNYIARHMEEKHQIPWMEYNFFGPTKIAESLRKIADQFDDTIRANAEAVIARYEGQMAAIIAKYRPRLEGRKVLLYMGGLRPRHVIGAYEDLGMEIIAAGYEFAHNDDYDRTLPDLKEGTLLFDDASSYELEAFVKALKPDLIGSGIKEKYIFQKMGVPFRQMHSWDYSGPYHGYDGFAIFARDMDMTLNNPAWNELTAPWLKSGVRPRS

[6] = biological target: T2, pFAγ::NifD::HA fusion polypeptide
T2 chain: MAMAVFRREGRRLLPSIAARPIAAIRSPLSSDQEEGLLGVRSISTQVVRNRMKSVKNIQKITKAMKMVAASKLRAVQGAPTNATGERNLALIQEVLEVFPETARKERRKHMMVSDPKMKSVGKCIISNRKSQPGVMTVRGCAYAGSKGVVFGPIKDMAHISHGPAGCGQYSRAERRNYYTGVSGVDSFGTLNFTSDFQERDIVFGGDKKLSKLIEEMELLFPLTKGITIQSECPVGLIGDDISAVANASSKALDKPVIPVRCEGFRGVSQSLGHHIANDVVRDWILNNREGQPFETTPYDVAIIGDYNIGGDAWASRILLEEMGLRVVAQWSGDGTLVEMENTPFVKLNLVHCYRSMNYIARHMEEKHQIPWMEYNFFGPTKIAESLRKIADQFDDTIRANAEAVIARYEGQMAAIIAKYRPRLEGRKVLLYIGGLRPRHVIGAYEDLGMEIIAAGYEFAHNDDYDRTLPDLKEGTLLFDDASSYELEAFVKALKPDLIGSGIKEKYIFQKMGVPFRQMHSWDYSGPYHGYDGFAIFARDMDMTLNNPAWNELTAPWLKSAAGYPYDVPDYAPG

NifD polypeptide encoded by pMIT2.1 (wild-type nitrogenase gene cluster) in E. coli, P00466, sequence (P00466 whole entry, looked up, the tested form may be a part): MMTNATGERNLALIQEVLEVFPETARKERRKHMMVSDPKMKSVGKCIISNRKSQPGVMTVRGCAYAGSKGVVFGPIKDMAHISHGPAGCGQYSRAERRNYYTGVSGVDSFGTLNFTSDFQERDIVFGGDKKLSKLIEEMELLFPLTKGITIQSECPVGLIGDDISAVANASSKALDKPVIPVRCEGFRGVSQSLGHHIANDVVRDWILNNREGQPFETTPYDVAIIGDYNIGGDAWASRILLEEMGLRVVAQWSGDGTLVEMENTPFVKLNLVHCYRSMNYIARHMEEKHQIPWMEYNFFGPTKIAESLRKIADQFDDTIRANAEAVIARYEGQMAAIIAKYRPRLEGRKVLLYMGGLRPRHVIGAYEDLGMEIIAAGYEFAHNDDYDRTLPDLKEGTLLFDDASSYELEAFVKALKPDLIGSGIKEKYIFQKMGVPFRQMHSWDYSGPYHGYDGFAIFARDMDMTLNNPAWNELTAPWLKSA

Molecule: pFAγ::NifH::HA fusion polypeptide
- extent of MTP processing of NifD::HA on co-expression (Western blot) [1]: the extent of processing of the MTP sequence fused to NifD::HA was increased in the presence of the NifK and NifH polypeptides

Molecule: pFAγ::NifK fusion polypeptide (pRA25), lacking any C-terminal extension (enzyme)
- level of NifD::FLAG accumulation (band intensity normalised to a background band, Western blot anti-FLAG), co-expression with pRA25 against pRA11 (NifK with C-terminal extension) [2]: 50%

B1: pFAγ::NifY::HA fusion polypeptide (other)
chain: ISTQVVRNRMKSVKNIQKITKAMKMVAASKLRAVQGAPSDNDTLFWRMLALFQSLPDLQPAQIVDWLAQESGETLTPERLATLTQPQLAASFPSATAVMSPARWSRVMASLQGALPAHLRIVRPAQRTPQLLAAFCSQDGLVINGHFGQGRLFFIYAFDEQGGWLYDLRRYPSAPHQQEANEVRARLIEDCQLLFCQEIGGPAAARPIRHRIHPMKAQPGTTIQAQCEAINTLLAGRLPPWLAKRLNRDNPLEERVFAGGGGGYPYDVPDYAPG
notes: Expressed in N. benthamiana; also called pRA12
- binding result [3]: binds

B2: pFAγ::NifS::HA fusion polypeptide (enzyme)
chain: ISTQVVRNRMKSVKNIQKITKAMKMVAASKLRAVQGAPKQVYLDNNATTRLDPMVLEAMMPFLTDFYGNPSSIHDFGIPAQAALERAHQQAAALLGAEYPSEIIFTSCATEATATAIASAIALLPERREIITSVVEHPATLAACEHMEREGYRIHRIAVDGEGALDMAQFRAALSPRVALVSVMWANNETGVLFPIGEMAELAHEQGALFHCDAVQVVGKIPIAVGQTRIDMLSCSAHKFHGPKGVGCLYLRRGTRFRPLLRGGHQEYGRRAGTENICGIVGMGAACELANIHLPGMTHIGQLRNRLEHRLLASVPSVMVMGGGQPAVPGTVNLAFEFIEGEAILLLLNQAGIAASSGSACTSGSLEPSHVMRAMNIPYTAAHGTIRFSLSRYTREKEIDYVVATLPPIIDRLRALSPYWQNGKPRPADAVFTPVYGAGGGGGYPYDVPDYAPG
notes: Expressed in N. benthamiana; also called pRA16
- binding result [3]: binds

B3: modified NifK polypeptide having a 9 amino acid C-terminal extension (YPYDVPDYA), encoded by modified pMIT2.1 (protein)
chain: MSQTIDKINSCYPLFEQDEYQELFRNKRQLEEAHDAQRVQEVFAWTTTAEYEALNFRREALTVDPAKACQPLGAVLCSLGFANTLPYVHGSQGCVAYFRTYFNRHFKEPIACVSDSMTEDAAVFGGNNNMNLGLQNASALYKPEIIAVSTTCMAEVIGDDLQAFIANAKKDGFVDSSIAVPHAHTPSFIGSHVTGWDNMFEGFAKTFTADYQGQPGKLPKLNLVTGFETYLGNFRVLKRMMEQMAVPCSLLSDPSEVLDTPADGHYRMYSGGTTQQEMKEAPDAIDTLLLQPWQLLKSKKVVQEMWNQPATEVAIPLGLAATDELLMTVSQLSGKPIADALTLERGRLVDMMLDSHTWLHGKKFGLYGDPDFVMGLTRFLLELGCEPTVILSHNANKRWQKAMNKMLDASPYGRDSEVFINCDLWHFRSLMFTRQPDFMIGNSYGKFIQRDTLAKGKAFEVPLIRLGFPLFDRHHLHRQTTWGYEGAMNIVTTLVNAVLEKLDSDTSQLGKTDYSFDLVRYPYDVPDYA
- ethylene production in acetylene reduction assay (E. coli DH5α, modified pMIT2.1 + pN249) [4]: the 9-amino acid C-terminal extension added to NifK completely abolished ethylene production

B4: pFAγ::NifB::HA fusion polypeptide (enzyme)
chain: ISTQVVRNRMKSVKNIQKITKAMKMVAASKLRAVQGAPTSCSSFSGGKACRPADDSALTPLVADKAAAHPCYSRHGHHRFARMHLPVAPACNLQCNYCNRKFDCSNESRPGVSSTLLTPEQAVVKVRQVAQAIPQLSVVGIAGPGDPLANIARTFRTLELIREQLPDLKLCLSTNGLVLPDAVDRLLDVGVDHVTVTINTLDAEIAAQIYAWLWLDGERYSGREAGEILIARQLEGVRRLTAKGVLVKINSVLIPGINDSGMAGVSRALRASGAFIHNIMPLIARPEHGTVFGLNGQPEPDAETLAATRSRCGEVMPQMTHCHQCRADAIGMLGEDRSQQFTQLPAPESLPAWLPILHQRAQLHASIATRGESEADDACLVAVASSRGDVIDCHFGHADRFYIYSLSAAGMVLVNERFTPKYCQGRDDCEPQDNAARFAAILELLADVKAVFCVRIGHTPWQQLEQEGIEPCVDGAWRPVSEVLPAWWQQRRGSWPAALPHKGVAAGGGGGYPYDVPDYAPG
notes: Expressed in N. benthamiana; also called pRA03
- binding result [3]: binds

B5: pFAγ::NifK fusion polypeptide (pRA25), lacking any C-terminal extension (protein)
chain: MAMAVFRREGRRLLPSIAARPIAAIRSPLSSDQEEGLLGVRSISTQVVRNRMKSVKNIQKITKAMKMVAASKLRAVQGAPSQTIDKINSCYPLFEQDEYQELFRNKRQLEEAHDAQRVQEVFAWTTTAEYEALNFRREALTVDPAKACQPLGAVLCSLGFANTLPYVHGSQGCVAYFRTYFNRHFKEPIACVSDSMTEDAAVFGGNNNMNLGLQNASALYKPEIIAVSTTCMAEVIGDDLQAFIANAKKDGFVDSSIAVPHAHTPSFIGSHVTGWDNMFEGFAKTFTADYQGQPGKLPKLNLVTGFETYLGNFRVLKRMMEQMAVPCSLLSDPSEVLDTPADGHYRMYSGGTTQQEMKEAPDAIDTLLLQPWQLLKSKKVVQEMWNQPATEVAIPLGLAATDELLMTVSQLSGKPIADALTLERGRLVDMMLDSHTWLHGKKFGLYGDPDFVMGLTRFLLELGCEPTVILSHNANKRWQKAMNKMLDASPYGRDSEVFINCDLWHFRSLMFTRQPDFMIGNSYGKFIQRDTLAKGKAFEVPLIRLGFPLFDRHHLHRQTTWGYEGAMNIVTTLVNAVLEKLDSDTSQLGKTDYSFDLVR
- NifD::HA abundance and ratio of processed to unprocessed NifD on co-infiltration (SDS-PAGE, Western blot anti-HA) [5]: the addition of pRA25 in each case greatly enhanced NifD abundance, particularly for the combination of SN7 and pRA25. Most importantly, the ratio of processed to unprocessed NifD was enhanced by the addition of pRA25.
- amount of the approximately 48 kDa NifD::HA degradation product on co-expression (Western blot anti-HA) [5]: the amount of this product was also enhanced by co-expression of pRA25 (NifK)
- extent of MTP processing of NifD::HA on co-expression (Western blot) [6]: the extent of processing of the MTP sequence fused to NifD::HA was increased in the presence of the NifK and NifH polypeptides
